{
  "source": "paper PMC10616090",
  "about": "“Tailoring FPOX enzymes for enhanced stability and expanded substrate recognition” (Scientific Reports, 2023)",
  "binders": {"B1": {"name": "fructosyl-Val-His-Leu-Thr-Pro-Glu hexapeptide (F6P) (peptide)", "peptide": "{1‑deoxyfructosyl}-VHLTPE"}, "B2": {"name": "PnFPOX (WT) (Parastagonospora nodorum SN15) (protein)", "chain": "MAPSRANTSVIVVGGGGTIGSSTALHLVRSGYTPSNVTVLDAYPIPSSQSAGNDLNKIMGVSLRNPVDLQLALEARQMWNEDELFKKFFHNTGRLDCAHGEKDIADLKSGYQALVDAGLDATNEWLDSEDEILKRMPLLSRDQIKGWKAIFSKDGGWLAAAKAINAVGEYLRDQGVRFGFYGAGSFKAPLLAEGVCIGVETVDGTRYYADKVVLAAGAWSPTLVELHEQCVSKAWVYGHIQLTPEEAARYKNSPVVYNGDVGFFFEPNEHGVIKVCDEFPGFTRFKMHQPFGAKAPKRISVPRSHAKHPTDTIPDASDVSIRRAIATFMPQFKNKKMFNQAMCWCTDTADAALLICEHPEWKNFVLATGDSGHSFKLLPNIGKHVVELLEGTLADDLAHAWRWRPGSGDALKSRRSAPAKDLADMPGWNHDKPRANL", "notes": "C-terminal 6His tag (kept), recombinant in E. coli BL21 Star (DE3); pET15b or pET17b; FAD enzyme"}},
  "key": {"[1]": {"molecular_target": "X02C variant of PnFPOX (derived from L3-35A through X02A) (Phaeosphaeria nodorum)"}, "[2]": {"molecular_target": "Phaeosphaeria nodorum fructosyl peptide oxidase (PnFPOX), wild type (Phaeosphaeria nodorum)"}, "[3]": {"substrate": "CC(C)[C@H](NC[C@@]1(O)OC[C@@H](O)[C@@H](O)[C@@H]1O)C(=O)O", "assay": "glucosone release, o-phenylenediamine, A322, Lineweaver-Burk fit", "format": "biochemical, Parastagonospora nodorum", "conditions": "20 mM Tris HCl pH 7.4, 25 °C, 20 mM o-phenylenediamine, substrate 0.05-10 mM", "description": "glucosone release, o-phenylenediamine, A322, Lineweaver-Burk fit on PnFPOX (WT)"}},
  "note": "Where no end group is shown, it is not given here.",
  "data": [
    {"binder": "B1", "values": [
      {"measurement": "Km for F6P in the enzymatic activity assay (glucosone release at 322 nm, F6P 0.05 to 1 mM, Lineweaver-Burk fit)", "setting": "[1]", "result": 30, "unit": "µM"},
      {"measurement": "Km for F6P in the enzymatic activity assay (glucosone release at 322 nm, F6P 0.05 to 1 mM, Lineweaver-Burk fit)", "setting": "[2]", "result": 810, "unit": "µM"}
    ]},
    {"binder": "B2", "values": [
      {"measurement": "Km", "setting": "[3]", "result": "5930 ± 1610", "unit": "µM"},
      {"measurement": "Vmax", "setting": "[3]", "result": 41700, "unit": "µM/min"},
      {"measurement": "kcat", "setting": "[3]", "result": "99.3 ± 19.9", "unit": "s⁻¹"},
      {"measurement": "kcat/Km", "setting": "[3]", "result": 16800, "unit": "M⁻¹ s⁻¹"}
    ]}
  ]
}
